Changes are numbered by the printed parent chain. Names and notes keep the numbering of the source. Values joined by “and” are separate entries in the source; they are usually repeats but may differ in a detail not shown here. Identical values can stand only once. Like-named read-outs stand apart in the source and are kept apart here.
T1: FtsZ core (residues 1-315) (Bacillus subtilis, UniProt P17865 1-315)
T1 construct: FtsZ, Bacillus subtilis, globular core, residues 1-315; The printed purification is TALON resin with elution by AcTEV protease; also called FtsZ globular core; tailless core; source: E. coli BL21 Star (DE3), purified
T1 sequence (looked up): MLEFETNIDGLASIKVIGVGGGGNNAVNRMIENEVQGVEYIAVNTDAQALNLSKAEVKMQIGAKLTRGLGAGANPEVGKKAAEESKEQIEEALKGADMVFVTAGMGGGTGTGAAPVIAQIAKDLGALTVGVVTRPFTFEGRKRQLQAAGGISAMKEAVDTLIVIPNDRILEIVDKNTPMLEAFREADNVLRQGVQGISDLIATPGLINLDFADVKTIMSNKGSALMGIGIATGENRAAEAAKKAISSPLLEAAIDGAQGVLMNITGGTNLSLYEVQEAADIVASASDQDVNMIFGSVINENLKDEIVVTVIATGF

T2: FtsZ core (residues 1-315) D210A/D213A (Bacillus subtilis, UniProt P17865 1-315, D210A | D213A)
T2 construct: FtsZ, Bacillus subtilis, globular core, residues 1-315, D210A/D213A; see S1 Appendix; also called acidic patch mutant core; source: E. coli BL21 Star (DE3), purified
T2 sequence (looked up): T1 sequence (looked up) with D210A, D213A

T3: FtsZ core (residues 1-315), wild type (Bacillus subtilis, UniProt P17865 1-315)
T3 construct: FtsZ of Bacillus subtilis, globular core, residues 1-315; The plasmid paragraph names 'full-length B. subtilis FtsZ and variants' in pET-28a (His6, TEV site); also called FtsZ Core WT; tailless core; source: E. coli One Shot BL21 Star (DE3), purified (TALON resin, eluted with AcTEV protease); not shown: His6, N-terminal, cleaved
T3 sequence (looked up): T1 sequence (looked up)

T4: FtsZ core (residues 1-315) M292H/I293W/F294K (Bacillus subtilis, UniProt P17865 1-315, M292H | I293W | F294K)
T4 construct: FtsZ of Bacillus subtilis, globular core, residues 1-315, M292H/I293W/F294K; Vector and tag as for 'FtsZ and variants'; also called FtsZ Core HWK; MIF pocket triple mutant; source: E. coli One Shot BL21 Star (DE3), purified (TALON resin, eluted with AcTEV protease); not shown: His6, N-terminal, cleaved
T4 sequence (looked up): T1 sequence (looked up) with M292H, I293W, F294K

T5: FtsZ core (residues 1-315) D210A/D213A (Bacillus subtilis, UniProt P17865 1-315, D210A | D213A)
T5 construct: FtsZ of Bacillus subtilis, globular core, residues 1-315, D210A/D213A; The sheet's label 'AA' is tied to D210A/D213A by the mean Kd (500.6 nM); Vector and tag as for 'FtsZ and variants'; also called FtsZ Core AA; acidic patch mutant; source: E. coli One Shot BL21 Star (DE3), purified (TALON resin, eluted with AcTEV protease); not shown: His6, N-terminal, cleaved
T5 sequence (looked up): T1 sequence (looked up) with D210A, D213A

B1: Full-length FtsZ (wild type) (natural protein, Bacillus subtilis, UniProt P17865 1-382, looked up)
chain: MLEFETNIDGLASIKVIGVGGGGNNAVNRMIENEVQGVEYIAVNTDAQALNLSKAEVKMQIGAKLTRGLGAGANPEVGKKAAEESKEQIEEALKGADMVFVTAGMGGGTGTGAAPVIAQIAKDLGALTVGVVTRPFTFEGRKRQLQAAGGISAMKEAVDTLIVIPNDRILEIVDKNTPMLEAFREADNVLRQGVQGISDLIATPGLINLDFADVKTIMSNKGSALMGIGIATGENRAAEAAKKAISSPLLEAAIDGAQGVLMNITGGTNLSLYEVQEAADIVASASDQDVNMIFGSVINENLKDEIVVTVIATGFIEQEKDVTKPQRPSLNQSIKTHNQSVPKREPKREEPQQQNTVSRHTSQPADDTLDIPTFLRNRNKRG
B2: Full-length FtsZ S333A (natural protein, Bacillus subtilis, UniProt P17865 1-382, looked up)
chain: B1 chain with S333A
B3: Full-length FtsZ S333E (natural protein, Bacillus subtilis, UniProt P17865 1-382, looked up)
chain: B1 chain with S333E
B4: FtsZ tail (residues 316-382) (domain or fragment, Bacillus subtilis, UniProt P17865 316-382, looked up)
chain: IEQEKDVTKPQRPSLNQSIKTHNQSVPKREPKREEPQQQNTVSRHTSQPADDTLDIPTFLRNRNKRG
notes: FtsZ, Bacillus subtilis, C-terminal tail, residues 316-382 (67 aa); Cloned in pGEX-6P-3 with a PreScission site; also called C-terminal tail; CTT; source: E. coli BL21 Star (DE3), purified; 15N-labelled in M9 minimal medium for NMR
B5: FtsZ tail (residues 316-382), wild type (domain or fragment, Bacillus subtilis, UniProt P17865 316-382, looked up)
chain: B4 chain
notes: FtsZ of Bacillus subtilis, C-terminal tail, residues 316-382; Cloned into pGEX-6P-3 with a PreScission site; also called FtsZ Tail WT; C-terminal tail; source: E. coli One Shot BL21 Star (DE3), purified
B6: FtsZ tail (residues 316-382) K335A/H337A (domain or fragment, Bacillus subtilis, UniProt P17865 316-382, looked up)
chain: B4 chain with K20A, H22A
notes: FtsZ, Bacillus subtilis, C-terminal tail, residues 316-382, K335A/H337A; pGEX-6P-3 with PreScission site; cleavage of GST not described; also called K335A/H337A tail double mutant; source: E. coli BL21 Star (DE3), purified
B7: FtsZ tail (residues 316-382) S333E (domain or fragment, Bacillus subtilis, UniProt P17865 316-382, looked up)
chain: B4 chain with S18E
notes: FtsZ, Bacillus subtilis, C-terminal tail, residues 316-382, S333E; pGEX-6P-3 with PreScission site; cleavage of GST not described; also called S333E tail variant; source: E. coli BL21 Star (DE3), purified
B8: FtsZ tail (residues 316-382) I334E (domain or fragment, Bacillus subtilis, UniProt P17865 316-382, looked up)
chain: B4 chain with I19E
notes: FtsZ, Bacillus subtilis, C-terminal tail, residues 316-382, I334E; pGEX-6P-3 with PreScission site; cleavage of GST not described; also called I334E tail mutant; source: E. coli BL21 Star (DE3), purified
B9: FtsZ tail (residues 316-382) S333A (domain or fragment, Bacillus subtilis, UniProt P17865 316-382, looked up)
chain: B4 chain with S18A
notes: FtsZ, Bacillus subtilis, C-terminal tail, residues 316-382, S333A; pGEX-6P-3 with PreScission site; cleavage of GST not described; also called S333A tail variant; source: E. coli BL21 Star (DE3), purified
B10: MinCN, the 92aa N-terminal domain of MinC (domain or fragment, Bacillus subtilis, UniProt Q01463 1-92, looked up)
chain: MKTKKQQYVTIKGTKNGLTLHLDDACSFDELLDGLQNMLSIEQYTDGKGQKISVHVKLGNRFLYKEQEEQLTELIASKKDLFVHSIDSEVIT
notes: MinC, Bacillus subtilis, N-terminal domain, 92 aa; amplified from B. subtilis genomic DNA; Cloned in pGEX-6P-1 with a PreScission site; cleavage of GST not described; source: E. coli BL21 Star (DE3), purified

Legend:
[1] = target: the molecule itself; assay: cell-based or functional assay
[2] = target: T1, FtsZ core (residues 1-315); assay: ITC; displacement: pre-formed MinCN:Core complex (45 µM MinCN + 5 µM Core, 9:1) in the cell, Tail titrated to 10 µM final; TKEG buffer, 25°C; conditions: both partners purified
[3] = target: T1, FtsZ core (residues 1-315); assay: ITC; full-length FtsZ or FtsZ core (5 µM) in the cell, FtsZ tail or MinCN (50 µM) in the syringe; TKEG buffer (50 mM Tris pH 8, 50 mM KCl, 1 mM EDTA, 5% glycerol), 25°C; one-site model; conditions: both partners purified
[4] = target: B1; assay: as above; conditions: both partners purified
[5] = target: T2, FtsZ core (residues 1-315) D210A/D213A; assay: as above; conditions: both partners purified
[6] = target: T3, FtsZ core (residues 1-315), wild type; assay: ITC; competition: FtsZ tail titrated into a pre-formed MinCN:Core complex (45 µM MinCN + 5 µM Core, 9:1, ~99% occupancy); TKEG buffer, 25°C; conditions: both partners purified
[7] = target: T3, FtsZ core (residues 1-315), wild type; assay: ITC; 5 µM full-length FtsZ or FtsZ core in the cell, 50 µM FtsZ tail or MinCN in the syringe; TKEG buffer (50 mM Tris pH 8, 50 mM KCl, 1 mM EDTA, 5% glycerol), 25°C; 20 injections of 2 µL; each replicate fitted
[8] = target: T4, FtsZ core (residues 1-315) …; assay: as above; conditions: both partners purified
[9] = target: T5, FtsZ core (residues 1-315) D210A/D213A; assay: as above; conditions: both partners purified

B1
critical concentration for polymerization (x-intercept of malachite green GTPase rate against FtsZ concentration) [1]: 0.51 µM
specific GTPase activity above the critical concentration (malachite green assay) [1]: 4 GTP/min/FtsZ

B2
critical concentration for polymerization (x-intercept of malachite green GTPase rate against FtsZ concentration) [1]: 0.41 µM
specific GTPase activity above the critical concentration (malachite green assay) [1]: 4.7 GTP/min/FtsZ

B3
critical concentration for polymerization (x-intercept of malachite green GTPase rate against FtsZ concentration) [1]: 0.37 µM
specific GTPase activity above the critical concentration (malachite green assay) [1]: 5.1 GTP/min/FtsZ

B4
stoichiometry N [2]: 1
Kd [3]: 228 ± 24 nM
Kd [4]: > 2000 nM
Kd [5]: 501 ± 64 nM

B5
stoichiometry N [6]: 1.03 and 0.948 and 0.919 and 0.965
Kd ([7]; both partners purified): 260 nM and 222 nM and 229 nM and 202 nM
stoichiometry N ([7]; both partners purified): 1.09 and 1.05 and 1.03 and 1.01
binding result [8]: binds
Kd [9]: 428 nM and 529 nM and 545 nM
stoichiometry N [9]: 1.18 and 1.24 and 1.1 and 1.17

B6
Kd [3]: > 2000 nM

B7
Kd [3]: > 2000 nM

B8
Kd [3]: > 2000 nM

B9
Kd [3]: > 2000 nM

B10
Kd [3]: 495 nM and 405 nM
stoichiometry N [3]: 1 ± 0.15
Kd [4]: > 2000 nM
Kd [7]: 418 nM and 447 nM and 621 nM
stoichiometry N [7]: 1.11 and 0.829 and 1.07

From publication PMC12747378, “FtsZ phosphorylation modulates tail-core binding to tune cell division in Bacillus subtilis” (PLOS One, 2025)
